# B1: Pif1 (Saccharomyces cerevisiae S288C) (protein)
# chain: RSNNFIQAQLKHPSILSKEDLDLLSDSDDWEEPDCIQLETEKQEKKIITDIHKEDPVDKKPMRDKNVMNFINKDSPLSWNDMFKPSIIQPPQLISENSFDQSSQKKSRSTGFKNPLRPALKKESSFDELQNNSISQERSLEMINENEKKKMQFGEKIAVLTQRPSFTELQNDQDDSNLNPHNGVKVKIPICLSKEQESIIKLAENGHNIFYTGSAGTGKSILLREMIKVLKGIYGRENVAVTASTGLAACNIGGITIHSFAGIGLGKGDADKLYKKVRRSRKHLRRWENIGALVVDEISMLDAELLDKLDFIARKIRKNHQPFGGIQLIFCGDFFQLPPVSKDPNRPTKFAFESKAWKEGVKMTIMLQKVFRQRGDVKFIDMLNRMRLGNIDDETEREFKKLSRPLPDDEIIPAELYSTRMEVERANNSRLSKLPGQVHIFNAIDGGALEDEELKERLLQNFLAPKELHLKVGAQVMMVKNLDATLVNGSLGKVIEFMDPETYFCYEALTNDPSMPPEKLETWAENPSKLKAAMEREQSDGEESAVASRKSSVKEGFAKSDIGEPVSPLDSSVFDFMKRVKTDDEVVLENIKRKEQLMQTIHQNSAGKRRLPLVRFKASDMSTRMVLVEPEDWAIEDENEKPLVSRVQLPLMLAWSLSIHKSQGQTLPKVKVDLRRVFEKGQAYVALSRAVSREGLQVLNFDRTRIKAHQKVIDFYLTLSSAESAYKQLEADEQVKKRKLDYAPGPKYKAKSKSKSNSPAPISATTQSNNGIAAMLQRHSRKRFQLKKESNSNQVHSLVSDEPRGQDTEDHILE
# notes: purified His6-tagged Pif1, purification as in Boule et al. 2005; monomer
# Substrate: Nc1ncnc2c1ncn2[C@@H]1O[C@H](COP(=O)(O)OP(=O)(O)OP(=O)(O)O)[C@@H](O)[C@H]1O
# Test: purified protein
# Assay type: biochemical, Saccharomyces cerevisiae
# Conditions: 3′-(dT)40 partial duplex DNA, monomer condition (10 nM Pif1 then wash), 5 mM MgCl2, 60 mM KCl, pH 7.5, 22 °C
protein,measurement,value
B1,Km,110 ± 17 µM
